Data as given in article PMC6731145.

B1: CX3CR1-DNA (dsDNA)
DNA 1: GATCCGCAGGGCCTCTCGGCTGCTGATCTTCAGCTGGTTGCTGAGAGTTGCAGCATTGCTGAGTCTTAGCAATGGATACTTCCCGATTCCCCTCACAAAAATAGGTCAGTCTGTCTGGCTAGTTCTGTACTTGCAGACACAGGGCATGTGGGGTTCCGGATC
DNA 2: GATCCGGAACCCCACATGCCCTGTGTCTGCAAGTACAGAACTAGCCAGACAGACTGACCTATTTTTGTGAGGGGAATCGGGAAGTATCCATTGCTAAGACTCAGCAATGCTGCAACTCTCAGCAACCAGCTGAAGATCAGCAGCCGAGAGGCCCTGCGGATC
B2: NRCAM-DNA (dsDNA)
DNA 1: GATCCATTACTTCTGAAACAGATGACTCCCAGCAGCTGCTGCCTGTGGCCCACAGGGCTTCCTGCCCTGCATGACAGCTGCACATCACATCCTGTGGTCATACTACTTCAGCCGCTTCTACGGCCAGATACAAAAGTGGGTGGGGAACATAGGCAAGGGATC
DNA 2: GATCCCTTGCCTATGTTCCCCACCCACTTTTGTATCTGGCCGTAGAAGCGGCTGAAGTAGTATGACCACAGGATGTGATGTGCAGCTGTCATGCAGGGCAGGAAGCCCTGTGGGCCACAGGCAGCAGCTGCTGGGAGTCATCTGTTTCAGAAGTAATGGATC

Legend:
CEBPβ T167D = CEBPβ T167D (mouse, UniProt P28033-3 1-275, T167D); assay: EMSA
Chain of CEBPβ T167D (P28033 22-296 T188D): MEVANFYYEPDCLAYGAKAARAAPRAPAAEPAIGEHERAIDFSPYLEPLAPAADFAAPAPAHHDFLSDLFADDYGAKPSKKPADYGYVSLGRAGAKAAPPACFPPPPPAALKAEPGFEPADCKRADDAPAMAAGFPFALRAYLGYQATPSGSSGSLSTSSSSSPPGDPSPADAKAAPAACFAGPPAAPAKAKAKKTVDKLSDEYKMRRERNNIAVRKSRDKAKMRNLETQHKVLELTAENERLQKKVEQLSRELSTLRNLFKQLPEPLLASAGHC

TFAP-2α = TFAP-2α (human, UniProt P05549 1-437); assay: EMSA
Chain of TFAP-2α (P05549 whole entry): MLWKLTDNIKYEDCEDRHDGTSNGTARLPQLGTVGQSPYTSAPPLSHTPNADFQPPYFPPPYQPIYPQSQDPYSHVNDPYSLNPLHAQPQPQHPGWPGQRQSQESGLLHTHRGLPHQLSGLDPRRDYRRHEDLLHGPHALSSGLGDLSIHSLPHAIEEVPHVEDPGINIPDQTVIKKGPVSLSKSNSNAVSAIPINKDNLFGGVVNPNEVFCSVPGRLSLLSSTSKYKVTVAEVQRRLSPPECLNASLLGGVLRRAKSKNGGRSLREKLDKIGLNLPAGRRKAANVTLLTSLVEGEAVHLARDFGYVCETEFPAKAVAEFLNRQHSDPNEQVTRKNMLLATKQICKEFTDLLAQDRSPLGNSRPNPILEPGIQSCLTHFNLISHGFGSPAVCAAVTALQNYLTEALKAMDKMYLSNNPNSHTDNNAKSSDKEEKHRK

| Binder | binding result (CEBPβ T167D) | binding result (TFAP-2α) |
| --- | --- | --- |
| B1 | binds | – |
| B2 | – | binds |
